Results taken from patent US20200255501A1 (VIB VZW, published 2020).

B1: anti-Sap Nanobody707 (VHH)
VHH: QVQLVESGGGLVQAGGSLRLSCAASGSIFRINAMGWYRQASGKQRELVAAITSGGNTNYADSVKGRFTISRDNAKNTVYLQMNSLKPEDTAVYYCNADFGTGGRPYDYWGQGTQVTVSS
B2: anti-Sap Nanobody684 (VHH)
VHH: QVQLVESGGGLVQAGGSLRLFCAASGSIFRVNAMGWYRQVTGKQRELVAAITSGGRTNYADSVKGRFTISRDNIKNTVYLQMNSLKPEDTAVYYCNADLGTGGRSYDYWGQGTQVTVSS
B3: anti-Sap Nanobody702 (VHH)
VHH: QVQLVESGGGLVQAGGSLRLSCAASGSIFRVNDMGWYRQAPGKQRELVAIIITGGSTNYADSVKGRFTISRDNAKNTVYLQMNSLRPEDTAVYYCNADFGTGPGRYDYWGQGTQVTVSS
B4: anti-Sap Nanobody683 (VHH)
VHH: QVQLVESGGGLVQAGGSLRLSCAASGSIFRINDMGWYRQAPGKQRELVAAITSGGSTNYADSVKGRFTISRDNAKKMVYLQMNSLKPEDTAVYYCHADFSTGWAPYDYWGQGTQVTVSS
B5: anti-Sap Nanobody703 (VHH)
VHH: QVQLVESGGGLVQPGGSLRLSCAASGFTFSSYAMSWVRQAPGKGLEWVSDINSGGGSTYYADSVKGRFTISRDNAKNTLYLQMNSLKPEDTAVYYCATGGKYGSTWYGQIEYDYWGQGTQVTVSS
B6: anti-Sap Nanobody692 (VHH)
VHH: QVQLVESGGGLVQAGGSLRLSCAASGSIFRINDMGWYRQAPGKQRELVAVITSGGSANYADSVKGRFSISRDNAKKAVYLRMNSLKPEDTAVYYCNADFGTLGRYDYWGQGTQVTVSS
B7: anti-Sap Nanobody688 (VHH)
VHH: QVQLVESGGGLVRAGGSLRLSCAASGSIFRINDMGWYRQAPGKQRELVAAITSGGSTNYADSVKGRFTISRDNAKNTVYLQMNSLKPEDTAVYYCNADFSTVRERRYDYWGQGTQVTVSS

How the values were obtained:
[1] = target: Sap Domain 2 (D2, residues 296-384), isolated recombinant domain (Bacillus anthracis, UniProt P49051 296-384); experiment: dot blot
[2] = target: Sap Domain 1 (D1, residues 216-295), isolated recombinant domain (Bacillus anthracis, UniProt P49051 216-295); experiment: dot blot
[3] = target: T1, B. anthracis Surface array protein (Sap), native S-Layer on B. anthracis 34F2 cells (Bacillus anthracis, UniProt P49051 30-814); experiment: fluorescence microscopy of B. anthracis 34F2 cells with DyLight 650-labelled Nb
T1 sequence: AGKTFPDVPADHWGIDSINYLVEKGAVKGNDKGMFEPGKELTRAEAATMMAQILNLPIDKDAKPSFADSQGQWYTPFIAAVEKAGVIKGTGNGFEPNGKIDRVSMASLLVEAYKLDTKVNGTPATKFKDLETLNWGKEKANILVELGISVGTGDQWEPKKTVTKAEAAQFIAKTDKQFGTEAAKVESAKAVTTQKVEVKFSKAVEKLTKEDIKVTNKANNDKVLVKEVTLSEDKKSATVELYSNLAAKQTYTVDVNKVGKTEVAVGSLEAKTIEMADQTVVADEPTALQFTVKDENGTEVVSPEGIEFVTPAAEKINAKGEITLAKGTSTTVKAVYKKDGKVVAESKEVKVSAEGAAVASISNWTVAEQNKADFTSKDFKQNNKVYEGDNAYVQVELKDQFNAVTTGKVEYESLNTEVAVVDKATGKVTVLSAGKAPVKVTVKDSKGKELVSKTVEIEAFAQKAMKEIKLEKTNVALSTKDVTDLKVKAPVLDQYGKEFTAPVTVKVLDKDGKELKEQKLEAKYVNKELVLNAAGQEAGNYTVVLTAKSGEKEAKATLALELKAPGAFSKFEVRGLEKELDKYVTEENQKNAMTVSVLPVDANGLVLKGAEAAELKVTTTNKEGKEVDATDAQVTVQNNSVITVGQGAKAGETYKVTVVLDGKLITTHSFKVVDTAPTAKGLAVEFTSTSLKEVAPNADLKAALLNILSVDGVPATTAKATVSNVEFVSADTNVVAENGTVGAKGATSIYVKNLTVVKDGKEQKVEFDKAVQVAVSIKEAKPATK

Binder | binding result [1] | other results
B1 | no binding | –
B2 | – | binding result [2]: binds
B3 | no binding | –
B4 | no binding | –
B5 | – | binding result [3]: binds
B6 | no binding | –
B7 | no binding | –
